Reference: patent publication US20260242478A1 (published 2026)

Columns and labels:
[1] = target: T1, Anti-CD28 Fab (SEQ ID NOs: 696, 697); test: phage ELISA; biotinylated anti-CD28 Fab on neutravidin plate, clonal phage supernatant, anti-M13 HRP
T1 construct: Biotinylated and captured on neutravidin coated plates in the phage ELISA
T1 sequence (VH, as listed by the source, chain 1 of 2): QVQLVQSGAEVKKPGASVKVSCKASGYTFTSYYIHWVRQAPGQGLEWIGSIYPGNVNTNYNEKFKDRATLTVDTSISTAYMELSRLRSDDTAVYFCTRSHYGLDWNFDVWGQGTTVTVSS
T1 sequence (VL, as listed by the source, chain 2 of 2): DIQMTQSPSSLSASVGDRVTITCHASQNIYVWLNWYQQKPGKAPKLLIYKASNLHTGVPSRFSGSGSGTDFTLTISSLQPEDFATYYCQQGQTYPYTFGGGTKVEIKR
Procedure: (§1) After panning, phage infected bacteria were plated out and colonies picked into 96 well blocks. Clonal phage was then amplified and separated from bacterial cells via centrifugation.
(§2) Clonal phage were harvested as crude supematants and screened via standard ELISAs. […] Prior to the addition of clonal phage, wells were incubated with blocking buffer and CD28 antigen or blocking buffer alone. Without washing or aspirating, clonal phage supematants were then added to the wells and incubated for a short time. Wells were then washed followed by detection of bound phage using a horse radish conjugated anti-M13 antibody. Clonal phage of interest were then sent for sequence analysis.

[2] = target: T1, Anti-CD28 Fab (SEQ ID NOs: 696, 697); test: phage ELISA; Fab-coated wells first incubated with CD28 antigen (competitor), then clonal phage, anti-M13 HRP
Procedure: as §1, §2

[3] = target: Anti-CD28 Fab (SEQ ID NOs: 696, 697); test: phage binding ELISA; captured Fab pre-incubated with CD28 antigen as competitor, anti-M13 HRP
Target sequence in this assay (VH, as listed by the source, chain 1 of 2): as the sequence (VH, as listed by the source, chain 1 of 2) above
Target sequence in this assay (VL, as listed by the source, chain 2 of 2): as the sequence (VL, as listed by the source, chain 2 of 2) above
Procedure: as §1, §2

[4] = target: Anti-CD28 Fab (SEQ ID NOs: 696, 697); test: phage binding ELISA; biotinylated Fab on neutravidin plate, clonal phage supernatant, anti-M13 HRP;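 note: clones picked after panning, added to wells pre-incubated with CD28 antigen or with blocking buffer only, no wash before phage addition, bound phage read after washing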
Target sequence in this assay (VH, as listed by the source, chain 1 of 2): as the sequence (VH, as listed by the source, chain 1 of 2) above
Target sequence in this assay (VL, as listed by the source, chain 2 of 2): as the sequence (VL, as listed by the source, chain 2 of 2) above
Procedure: as §1, §2

[5] = target: Anti-CD28 Fab (SEQ ID NOs: 696, 697); test: phage ELISA; biotinylated anti-CD28 Fab on neutravidin plate, clonal phage supernatant, anti-M13 HRP detection;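 note: crude supernatants of single phage clones picked after panning were screened for binding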
Target sequence in this assay (VH, as listed by the source, chain 1 of 2): as the sequence (VH, as listed by the source, chain 1 of 2) above
Target sequence in this assay (VL, as listed by the source, chain 2 of 2): as the sequence (VL, as listed by the source, chain 2 of 2) above

[6] = target: Anti-CD28 Fab (SEQ ID NOs: 696, 697); test: phage ELISA; Fab on plate pre-incubated with CD28 antigen (competitor), clonal phage supernatant, anti-M13 HRP detection
Target sequence in this assay (VH, as listed by the source, chain 1 of 2): as the sequence (VH, as listed by the source, chain 1 of 2) above
Target sequence in this assay (VL, as listed by the source, chain 2 of 2): as the sequence (VL, as listed by the source, chain 2 of 2) above
Procedure: as §1, §2

[7] = target: T2, Anti-CD28 Fab (SEQ ID NOs: 696, 697); test: phage ELISA; biotinylated anti-CD28 Fab on neutravidin plate, clonal phage supernatant, anti-M13 HRP detection;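 note: crude supernatants of single phage clones picked after panning were screened for binding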
T2 construct: In the phage ELISA the Fab was biotinylated and captured on neutravidin coated plates
T2 sequence (VH, as listed by the source, chain 1 of 2): as the sequence (VH, as listed by the source, chain 1 of 2) above
T2 sequence (VL, as listed by the source, chain 2 of 2): as the sequence (VL, as listed by the source, chain 2 of 2) above

[8] = target: T2, Anti-CD28 Fab (SEQ ID NOs: 696, 697); test: phage ELISA; Fab-coated wells pre-incubated with CD28 antigen as competitor, clonal phage supernatant, anti-M13 HRP detection
Procedure: as §1, §2

YCEGHTQAYLAKCL [Phage-1239]
Anti-CD28 Fab signal (phage binding ELISA) [1]: 0.93 | Anti-CD28 Fab signal in the presence of CD28 (phage binding ELISA) [2]: 0.1

YCAGHSAQYMWKCL [Phage-1240]
Anti-CD28 Fab signal (phage binding ELISA) [1]: 0.92 | Anti-CD28 Fab signal in the presence of CD28 (phage binding ELISA) [2]: 0.07

YCDGHSFEYMAKCL [Phage-1241]
Anti-CD28 Fab signal (phage binding ELISA) [1]: 0.92 | Anti-CD28 Fab signal in the presence of CD28 (phage binding ELISA) [2]: 0.06

YCDGHSAEYLGKCL [Phage-1242]
Anti-CD28 Fab signal (phage binding ELISA) [1]: 0.92 | Anti-CD28 Fab signal in the presence of CD28 (phage binding ELISA) [2]: 0.07

YCVGHSPEYIWKCL [Phage-1243]
Anti-CD28 Fab signal (phage binding ELISA) [1]: 0.92 | Anti-CD28 Fab signal in the presence of CD28 (phage binding ELISA) [2]: 0.06

YCDGHELMYMEKCL [Phage-1244]
Anti-CD28 Fab signal (phage binding ELISA) [1]: 0.92 | Anti-CD28 Fab signal in the presence of CD28 (phage binding ELISA) [2]: 0.06

YCAGHLEMYMSKCL [Phage-1245]
Anti-CD28 Fab signal (phage binding ELISA) [1]: 0.91 | Anti-CD28 Fab signal in the presence of CD28 (phage binding ELISA) [2]: 0.07

YCDGHIKEYMSKCL [Phage-1246]
Anti-CD28 Fab signal (phage binding ELISA) [1]: 0.91 | Anti-CD28 Fab signal in the presence of CD28 (phage binding ELISA) [2]: 0.08

YCDGHLLMYMEKCL (Tested as clonal phage supernatant) [Phage-1247]
Anti-CD28 Fab signal in the presence of CD28 [3]: 0.06 | Anti-CD28 Fab (SEQ ID NOs: 696, 697) signal [4]: 0.91

YCEGHDWMYMEKCL (Tested as clonal phage supernatant) [Phage-1248]
Anti-CD28 Fab signal in the presence of CD28 [3]: 0.07 | Anti-CD28 Fab (SEQ ID NOs: 696, 697) signal [4]: 0.91

YCEGHSQEYKAKCF (Tested as clonal phage supernatant) [Phage-1249]
Anti-CD28 Fab signal in the presence of CD28 [3]: 0.07 | Anti-CD28 Fab (SEQ ID NOs: 696, 697) signal [4]: 0.9

YCDGHVLMYLAKCL (Tested as clonal phage supernatant) [Phage-1250]
Anti-CD28 Fab signal in the presence of CD28 [3]: 0.09 | Anti-CD28 Fab (SEQ ID NOs: 696, 697) signal [4]: 0.9

YCEGHSSAYMAKCL (Tested as clonal phage supernatant) [Phage-1251]
Anti-CD28 Fab signal in the presence of CD28 [3]: 0.07 | Anti-CD28 Fab (SEQ ID NOs: 696, 697) signal [4]: 0.9

YCEGHLAAYMYKCL (Tested as clonal phage supernatant) [Phage-1252]
Anti-CD28 Fab signal in the presence of CD28 [3]: 0.07 | Anti-CD28 Fab (SEQ ID NOs: 696, 697) signal [4]: 0.89

YCDGHSTLYMQKCL (Tested as clonal phage supernatant) [Phage-1253]
Anti-CD28 Fab signal in the presence of CD28 [3]: 0.06 | Anti-CD28 Fab (SEQ ID NOs: 696, 697) signal [4]: 0.88

YCDGHTEAYMSKCL (Tested as clonal phage supernatant) [Phage-1254]
Anti-CD28 Fab signal in the presence of CD28 [3]: 0.06 | Anti-CD28 Fab (SEQ ID NOs: 696, 697) signal [4]: 0.88

YCEGHISEYMGKCL (Tested as clonal phage supernatant) [Phage-1255]
Anti-CD28 Fab signal in the presence of CD28 [3]: 0.05 | Anti-CD28 Fab (SEQ ID NOs: 696, 697) signal [4]: 0.88

YCDGHFTWYMAKCL (Tested as clonal phage supernatant) [Phage-1256]
Anti-CD28 Fab signal in the presence of CD28 [3]: 0.08 | Anti-CD28 Fab (SEQ ID NOs: 696, 697) signal [4]: 0.87

YCDGHIAEYRSKCL (Tested as clonal phage supernatant) [Phage-1257]
Anti-CD28 Fab signal in the presence of CD28 [3]: 0.07 | Anti-CD28 Fab (SEQ ID NOs: 696, 697) signal [4]: 0.87

YCEGHLSEYIGKCL (Tested as clonal phage supernatant) [Phage-1258]
Anti-CD28 Fab signal in the presence of CD28 [3]: 0.06 | Anti-CD28 Fab (SEQ ID NOs: 696, 697) signal [4]: 0.87

YCDGHTAQYMWKCL (Tested as clonal phage supernatant) [Phage-1259]
Anti-CD28 Fab signal in the presence of CD28 [3]: 0.07 | Anti-CD28 Fab (SEQ ID NOs: 696, 697) signal [4]: 0.87

YCAGHSLQYLGKCY (also called Peptide-87 library clone) [Phage-1260]
Phage binding ELISA, Anti-CD28 Fab signal [5]: 0.86 | Phage binding ELISA, Anti-CD28 Fab signal in the presence of CD28 [6]: 0.06

YCAGHAAIYMAKCL (also called Peptide-87 library clone) [Phage-1261]
Phage binding ELISA, Anti-CD28 Fab signal [5]: 0.85 | Phage binding ELISA, Anti-CD28 Fab signal in the presence of CD28 [6]: 0.07

YCDGHSMTYMAKCI (also called Peptide-87 library clone) [Phage-1262]
Phage binding ELISA, Anti-CD28 Fab signal [5]: 0.84 | Phage binding ELISA, Anti-CD28 Fab signal in the presence of CD28 [6]: 0.06

YCDGHKWEYLQKCL (also called Peptide-87 library clone) [Phage-1263]
Phage binding ELISA, Anti-CD28 Fab signal [5]: 0.84 | Phage binding ELISA, Anti-CD28 Fab signal in the presence of CD28 [6]: 0.06

YCDGHDPQYIRKCI (also called Peptide-87 library clone) [Phage-1264]
Phage binding ELISA, Anti-CD28 Fab signal [5]: 0.83 | Phage binding ELISA, Anti-CD28 Fab signal in the presence of CD28 [6]: 0.06

YCEGHLPMYMQKCM (also called Peptide-87 library clone) [Phage-1265]
Phage binding ELISA, Anti-CD28 Fab signal [5]: 0.82 | Phage binding ELISA, Anti-CD28 Fab signal in the presence of CD28 [6]: 0.07

YCDGHSGEYMSKCL (also called Peptide-87 library clone) [Phage-1266]
Phage binding ELISA, Anti-CD28 Fab signal [5]: 0.82 | Phage binding ELISA, Anti-CD28 Fab signal in the presence of CD28 [6]: 0.06

YCEGHAREYMDKCL (also called Peptide-87 library clone) [Phage-1267]
Phage binding ELISA, Anti-CD28 Fab signal [5]: 0.8 | Phage binding ELISA, Anti-CD28 Fab signal in the presence of CD28 [6]: 0.07

YCDGHSMEYMAKCL (also called Peptide-87 library clone) [Phage-1268]
Phage binding ELISA, Anti-CD28 Fab signal [5]: 0.8 | Phage binding ELISA, Anti-CD28 Fab signal in the presence of CD28 [6]: 0.07

YCDGHSPQYLWKCL (also called Peptide-87 library clone) [Phage-1269]
Phage binding ELISA, Anti-CD28 Fab signal [5]: 0.8 | Phage binding ELISA, Anti-CD28 Fab signal in the presence of CD28 [6]: 0.05

YCAGHSAEYIQKCL (also called Peptide-87 library clone) [Phage-1270]
Phage binding ELISA, Anti-CD28 Fab signal [5]: 0.8 | Phage binding ELISA, Anti-CD28 Fab signal in the presence of CD28 [6]: 0.08

YCAGHTQEYMLKCL (also called Peptide-87 library clone) [Phage-1271]
Phage binding ELISA, Anti-CD28 Fab signal [5]: 0.78 | Phage binding ELISA, Anti-CD28 Fab signal in the presence of CD28 [6]: 0.06

YCQGHSVQYMAKCL (also called Peptide-87 library clone) [Phage-1272]
Phage binding ELISA, Anti-CD28 Fab signal [5]: 0.77 | Phage binding ELISA, Anti-CD28 Fab signal in the presence of CD28 [6]: 0.06

YCQGHAPWYMVKCL [Phage-1287]
Phage binding ELISA, Anti-CD28 Fab signal [7]: 0.69 | Phage binding ELISA, Anti-CD28 Fab signal in the presence of CD28 [8]: 0.08

YCEGHMSEYMRKCL [Phage-1288]
Phage binding ELISA, Anti-CD28 Fab signal [7]: 0.69 | Phage binding ELISA, Anti-CD28 Fab signal in the presence of CD28 [8]: 0.1

YCVGHLPLYMPNCL [Phage-1289]
Phage binding ELISA, Anti-CD28 Fab signal [7]: 0.68 | Phage binding ELISA, Anti-CD28 Fab signal in the presence of CD28 [8]: 0.11

YCDGHEPQYMTKCL [Phage-1290]
Phage binding ELISA, Anti-CD28 Fab signal [7]: 0.68 | Phage binding ELISA, Anti-CD28 Fab signal in the presence of CD28 [8]: 0.1

YCEGHLPQYLAKCY [Phage-1291]
Phage binding ELISA, Anti-CD28 Fab signal [7]: 0.67 | Phage binding ELISA, Anti-CD28 Fab signal in the presence of CD28 [8]: 0.08

YCDGHYGAYILKCL [Phage-1292]
Phage binding ELISA, Anti-CD28 Fab signal [7]: 0.67 | Phage binding ELISA, Anti-CD28 Fab signal in the presence of CD28 [8]: 0.06

YCEGHAAVYMHKCL [Phage-1293]
Phage binding ELISA, Anti-CD28 Fab signal [7]: 0.67 | Phage binding ELISA, Anti-CD28 Fab signal in the presence of CD28 [8]: 0.09

YCDGHMDAYMSKCL [Phage-1294]
Phage binding ELISA, Anti-CD28 Fab signal [7]: 0.65 | Phage binding ELISA, Anti-CD28 Fab signal in the presence of CD28 [8]: 0.06

YCMGHSAEYMGKCL [Phage-1295]
Phage binding ELISA, Anti-CD28 Fab signal [7]: 0.64 | Phage binding ELISA, Anti-CD28 Fab signal in the presence of CD28 [8]: 0.06

YCDGHAWWYMEKCL [Phage-1296]
Phage binding ELISA, Anti-CD28 Fab signal [7]: 0.64 | Phage binding ELISA, Anti-CD28 Fab signal in the presence of CD28 [8]: 0.06

YCDGHAAWYLQKCL [Phage-1297]
Phage binding ELISA, Anti-CD28 Fab signal [7]: 0.64 | Phage binding ELISA, Anti-CD28 Fab signal in the presence of CD28 [8]: 0.07

YCEGHAQMYMLKCL [Phage-1298]
Phage binding ELISA, Anti-CD28 Fab signal [7]: 0.64 | Phage binding ELISA, Anti-CD28 Fab signal in the presence of CD28 [8]: 0.06
